We go through eleven molecules from article PMC4154873, “Delineation of Interfaces on Human Alpha-Defensins Critical for Human Adenovirus and Human Papillomavirus Inhibition” (PLoS Pathogens, 2014).

Experiment [1] relates to AdV5.eGFP. The experiment in a line: Neutralization of AdV5.eGFP pre-bound to A549 cells before addition of HNP1. It counts as cell-based, human AdV-5. The conditions noted are these: virus pre-bound to cells, versus wild type HNP1.
Protocol: A549 cell monolayers were infected with serial dilutions of AdV5.eGFP in black wall, clear bottom 96-well plates (Perkin-Elmer, San Jose, CA). Total monolayer fluorescence was quantified with a Typhoon 9400 variable mode imager (GE Healthcare, Piscataway, NJ) 24–30 h post-infection. A virus concentration producing 50–80% maximal signal was chosen for inhibition studies.
Serum-free DMEM (SFM) alone or containing increasing concentrations of wild type or mutant HD5 was incubated with purified AdV5.eGFP for 45 min on ice. The mixture (35 µl/well) was added to a confluent monolayer of A549 cells that had been washed twice in SFM. Cells were then incubated at 37°C for 2 h with rocking, washed, and cultured with complete DMEM for 24–30 h. Plates were scanned for eGFP signal as above, and background-subtracted total well fluorescence was quantified using ImageJ software [36]. […] For assays with HNP1, virus alone in SFM was pre-incubated on a confluent monolayer of A549 cells with rocking for 45 min at 4°C. Cells were then washed twice with chilled SFM, and SFM alone or containing increasing concentrations of wild type or mutant HNP1 was added. Cells were incubated for 45 min at 4°C and then shifted to 37°C. After 2 h, cells were washed twice with complete media and incubated a further 24–30 h at 37°C until eGFP signal was quantified as above.
Experiment [2] concerns the target rPenton, recombinant penton capsomere of human AdV-5 fiber and penton base (human AdV-5). Kind of experiment: SPR.
In experiment [3] the target is human AdV-5 penton base (human AdV-5). Kind of experiment: SEC; analytical size exclusion chromatography, Superdex 200 10/300 GL; data not shown.
Experiment [4] concerns the target T1, rPenton (fiber and penton base) (Human adenovirus C serotype 5, UniProt P11818+P12538).
T1 construct: enterokinase recognition site 5′ of the full-length human AdV5 penton base (PB) gene; The baculovirus expression system was used to generate full-length human AdV-5 fiber; enterokinase recognition site (pRSET-A leader) (N); 6xHis followed by Tev protease recognition site (N, cleaved yes); made in house; host or cells: PB: E. coli BL21-CodonPlus (DE3)-RIPL; fiber: HighFive insect cells (baculovirus)
Kind of experiment: biochemical. It counts as binding, human AdV-5. The conditions noted are these: for Kd: SPR Biacore T200, CM5 chip, 2115 RU rPenton, 25°C, HBS EP+ pH 7.4, steady-state fit of RU at 80 sec association, 3 µM to 111 nM, best-fit ± SE. The procedure:
(§1) Experiments were performed on a Biacore T200 system (Biacore, GE Healthcare) at 25°C in HBS EP+ running buffer (9.5 mM HEPES, 142.5 mM NaCl, 2.85 mM EDTA, 0.05% surfactant P20, pH 7.4). The first flow cell on a CM5 sensor chip was reserved to measure background binding, while additional cells were used to immobilize fiber, PB, and rPenton by amine-coupling chemistry. A target density of 2000 resonance units (RU) was selected for rPenton, and for Figure 3D, an equal number of fiber (708 RU) and PB (1292 RU) were also targeted for immobilization. The final RUs immobilized were: 2115 RU rPenton, 889 RU fiber, and 1061 RU PB. Analyte was injected to the flow cells at a rate of 11 µl/min and binding was measured for 3 min, followed by measuring dissociation for 5 min in analyte-free running buffer. The flow cells were regenerated with two 30 s pulses of 10 mM HCl at 11 µl/min separated by 30 s in running buffer. After regeneration, the flow cells were stabilized in running buffer for 2 min before injection of the next analyte. Data analysis was performed using Biacore T200 evaluation software and Prism (version 5.0d).
Affinity (KD) and Bmax were derived by fitting RU values at 80 s post-injection using the Steady State Surface Bound Affinity model in Biacore T200 Evaluation software. Stoichiometry (Sm) of HD5 bound to rPenton at saturation was calculated using the following equation: [drawing 1] (1)

For experiment [5], the target named is human AdV-5 fiber (human AdV-5). The experiment in a line: SEC; analytical size exclusion chromatography, Superdex 200 10/300 GL; data not shown.
For experiment [6] the target is unchanged. The experiment in a line: immunoblot of samples heated or not before SDS-PAGE; fiber samples heated or not for 5 min to 95°C, 4D2 anti-fiber mAb; data not shown.
Experiment [7] has as its system AdV5.eGFP. The note with it: cited from earlier work.
In the next experiment the test system is penton base (PB). The experiment in a line: SPR binding to immobilized penton base. Further details: species or system human AdV-5. The conditions noted are these: CAR-Ig at 35 nM, 1061 RU PB. Here is the method:
as §1

The test system of another experiment is fiber. The experiment in a line: SPR binding to immobilized fiber. Further details: species or system human AdV-5. The note with it: CAR-Ig at 35 nM, 889 RU fiber. Here is the method: as §1

Where a SMILES comes first, the peptide text is derived from it. Bridges are numbered along the chain shown (N, C = ends).

T1 sequence (P11818 whole entry): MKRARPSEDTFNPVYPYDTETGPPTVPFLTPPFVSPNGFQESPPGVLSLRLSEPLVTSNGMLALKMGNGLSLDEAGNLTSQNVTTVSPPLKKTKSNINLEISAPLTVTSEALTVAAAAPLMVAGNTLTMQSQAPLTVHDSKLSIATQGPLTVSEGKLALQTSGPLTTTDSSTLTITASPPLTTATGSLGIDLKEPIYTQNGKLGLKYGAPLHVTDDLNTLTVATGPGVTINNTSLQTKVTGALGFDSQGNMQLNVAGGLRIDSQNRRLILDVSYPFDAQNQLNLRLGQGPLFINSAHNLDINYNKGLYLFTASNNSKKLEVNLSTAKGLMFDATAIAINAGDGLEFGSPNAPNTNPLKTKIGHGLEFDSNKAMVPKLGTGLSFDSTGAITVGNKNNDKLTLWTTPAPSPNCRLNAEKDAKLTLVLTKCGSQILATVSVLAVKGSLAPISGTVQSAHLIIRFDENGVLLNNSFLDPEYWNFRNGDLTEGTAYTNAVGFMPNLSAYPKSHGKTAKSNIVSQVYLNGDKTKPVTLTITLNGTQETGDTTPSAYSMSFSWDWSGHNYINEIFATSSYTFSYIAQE
T1 sequence (P12538 whole entry): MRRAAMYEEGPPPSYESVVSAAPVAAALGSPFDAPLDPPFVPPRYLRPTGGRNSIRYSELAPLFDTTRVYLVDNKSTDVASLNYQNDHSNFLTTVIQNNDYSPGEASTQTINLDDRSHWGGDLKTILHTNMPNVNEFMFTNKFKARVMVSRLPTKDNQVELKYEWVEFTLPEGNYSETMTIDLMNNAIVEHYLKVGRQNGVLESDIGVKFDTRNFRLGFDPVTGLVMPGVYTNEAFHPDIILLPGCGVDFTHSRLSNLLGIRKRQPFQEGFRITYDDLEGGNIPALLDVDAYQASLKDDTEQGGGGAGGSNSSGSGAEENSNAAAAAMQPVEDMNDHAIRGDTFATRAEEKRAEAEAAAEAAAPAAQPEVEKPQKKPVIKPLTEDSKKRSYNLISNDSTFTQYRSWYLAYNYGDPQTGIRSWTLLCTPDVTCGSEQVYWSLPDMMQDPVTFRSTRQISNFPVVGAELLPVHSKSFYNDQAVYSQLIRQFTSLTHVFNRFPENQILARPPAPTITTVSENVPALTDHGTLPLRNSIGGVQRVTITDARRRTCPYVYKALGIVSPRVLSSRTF
Sequence of rPenton, recombinant penton capsomere of human AdV-5 fiber and penton base (human AdV-5) (P11818 whole entry, chain 1 of 2): as the sequence (P11818 whole entry) above
Sequence of rPenton, recombinant penton capsomere of human AdV-5 fiber and penton base (human AdV-5) (P12538 whole entry, chain 2 of 2, further chain): as the sequence (P12538 whole entry) above

On to HNP1 W26A, for which the “Effect of HNP1 mutation on anti-AdV activity (in words)” value in the experiment on AdV5.eGFP [1] is listed as “most deleterious”.
For the molecule HD5 Y27A (peptide), in [2], the Kd is 3.39 µM.
“human AdV-5 penton base (natural protein)” showed a stoichiometry N in [3] of 5.
Regarding HD5 L29A (peptide), the Kd in [2] came to 3.82 µM.
The molecule `CC[C@H](C)[C@@H]1NC(=O)[C@H](CCC(=O)O)NC(=O)[C@@H]2CSSC[C@@H]3NC(=O)[C@H](Cc4ccc(O)cc4)NC(=O)[C@@H](NC(=O)[C@@H](NC(=O)[C@H](C)N)[C@@H](C)O)CSSC[C@@H](C(=O)N[C@@H](CCCNC(=N)N)C(=O)O)NC(=O)[C@H](CSSC[C@H](NC(=O)[C@H](CCCNC(=N)N)NC(=O)CNC(=O)[C@H]([C@@H](C)O)NC(=O)[C@H](CCCNC(=N)N)NC3=O)C(=O)N[C@@H](C)C(=O)N[C@@H]([C@@H](C)O)C(=O)N[C@@H](CCCNC(=N)N)C(=O)N[C@@H](CCC(=O)O)C(=O)N[C@@H](CO)C(=O)N[C@@H](CC(C)C)C(=O)N[C@@H](CO)C(=O)NCC(=O)N[C@@H](C(C)C)C(=O)N2)NC(=O)[C@H](C)NC(=O)[C@H](CCCNC(=N)N)NC(=O)[C@H](Cc2ccc(O)cc2)NC(=O)[C@H](CC(C)C)NC(=O)[C@H](CCCNC(=N)N)NC(=O)CNC(=O)[C@H](CO)NC1=O` [L29A] (H-ATCYCRTGRCATRESLSGVCEISGRLYRACCR-OH; disulfide 3-31, 5-20, 10-30) came in with a Kd in experiment [4] of 3.82 ± 0.3 µM.
Turning to human AdV-5 fiber (natural protein), the stoichiometry N in [5] and in experiment [6] was 3 in each case.
As for human neutrophil peptide 1 [HNP1], the “Ability to neutralize AdV infection compared to HD5 (in words)” value with AdV5.eGFP [7] is “reduced ability to neutralize AdV infection”.
On to `CC[C@H](C)[C@@H]1NC(=O)[C@H](CCC(=O)O)NC(=O)[C@@H]2CSSC[C@@H]3NC(=O)[C@H](Cc4ccc(O)cc4)NC(=O)[C@@H](NC(=O)[C@@H](NC(=O)[C@H](C)N)[C@@H](C)O)CSSC[C@@H](C(=O)N[C@@H](CCCNC(=N)N)C(=O)O)NC(=O)[C@H](CSSC[C@H](NC(=O)[C@H](CCCNC(=N)N)NC(=O)CNC(=O)[C@H]([C@@H](C)O)NC(=O)[C@H](CCCNC(=N)N)NC3=O)C(=O)N[C@@H](C)C(=O)N[C@@H]([C@@H](C)O)C(=O)N[C@@H](CCCNC(=N)N)C(=O)N[C@@H](CCC(=O)O)C(=O)N[C@@H](CO)C(=O)N[C@@H](CC(C)C)C(=O)N[C@@H](CO)C(=O)NCC(=O)N[C@@H](C(C)C)C(=O)N2)NC(=O)[C@H](CC(C)C)NC(=O)[C@H](CCCNC(=N)N)NC(=O)[C@H](C)NC(=O)[C@H](CC(C)C)NC(=O)[C@H](CCCNC(=N)N)NC(=O)CNC(=O)[C@H](CO)NC1=O` [Y27A] (H-ATCYCRTGRCATRESLSGVCEISGRLARLCCR-OH; disulfide 3-31, 5-20, 10-30), for which the Kd in [4] amounted to 3.39 ± 0.27 µM.
Still for that read-out and setting: for `CC[C@H](C)[C@@H]1NC(=O)[C@H](CCC(=O)O)NC(=O)[C@@H]2CSSC[C@@H]3NC(=O)[C@H](Cc4ccc(O)cc4)NC(=O)[C@@H](NC(=O)[C@@H](NC(=O)[C@H](C)N)[C@@H](C)O)CSSC[C@@H](C(=O)N[C@@H](CCCNC(=N)N)C(=O)O)NC(=O)[C@H](CSSC[C@H](NC(=O)[C@H](CCCNC(=N)N)NC(=O)CNC(=O)[C@H]([C@@H](C)O)NC(=O)[C@H](CCCNC(=N)N)NC3=O)C(=O)N[C@@H](C)C(=O)N[C@@H]([C@@H](C)O)C(=O)N[C@@H](CCCNC(=N)N)C(=O)N[C@@H](CCC(=O)O)C(=O)N[C@@H](CO)C(=O)N[C@@H](CC(C)C)C(=O)N[C@@H](CO)C(=O)NCC(=O)N[C@@H](C(C)C)C(=O)N2)NC(=O)[C@H](CC(C)C)NC(=O)[C@H](CCCNC(=N)N)NC(=O)[C@H](Cc2ccc(O)cc2)NC(=O)[C@H](CC(C)C)NC(=O)[C@H](CCCNC(=N)N)NC(=O)CNC(=O)[C@H](CO)NC1=O` [HD5, human α-defensin 5, reference compound] (H-ATCYCRTGRCATRESLSGVCEISGRLYRLCCR-OH; disulfide 3-31, 5-20, 10-30) the value was 1.81 ± 0.22 µM.
As for ATCYCRTGRCATRESLSGVCEISGRLYRLCCR [human α-defensin 5 (HD5), wild type], in experiment [2], the Kd came to 1.81 µM and the stoichiometry N worked out at 210.

B1: CAR-Ig: soluble form of the AdV receptor fused to the constant region of rabbit Ig (protein)
chain: LSITTPEEMIEKAKGETAYLPCKFTLSPEDQGPLDIEWLISPADNQKVDQVIILYSGDKIYDDYYPDLKGRVHFTSNDLKSGDASINVTNLQLSDIGTYQCKVKKAPGVANKKIHLVVLVKPSGARCYVDGSEEIGSDFKIKCEPKEGSLPLQYEWQKLSDSQKMPTSWLAEMTSSVISVKNASSEYSGTYSCTVRNRVGSDQCLLRLNVVPPSNK
modifications: left off: Fc (rabbit IgG heavy chain), end not stated, kept
As for B1, the “Binding to immobilized PB (in words)” value in the experiment on penton base (PB) is “unable to bind”. Further, the “Binding to immobilized rPenton (in words)” value in [4] is “able to bind”. The “Binding to immobilized fiber (in words)” value in the experiment on fiber is on record as “able to bind”.
